tested on: CD8+ T cells; experiment: In vitro T-cell priming assay with aAPCs (in vitro immunogenicity for MHC class I presented peptides); assay type: cell-based, human; settings: in vitro immunogenicity, HLA A*24

Substance | Wells positive [%]
11 (YYSKSVGFMQW; listed as Homo sapiens) [compound 11] | “++” (20%-49% = ++)
15 (KYALLLQDL; listed as Homo sapiens) [compound 15] | “+++” (50%-69% = +++)
8 (PFLPPAACFF; listed as Homo sapiens) [compound 8] | “+” (<20% = +)
83 (TYCQNIKEF; listed as Homo sapiens) [compound 83] | “+” (<20% = +)
62 (LYQEILAQL; listed as Homo sapiens) [compound 62] | “+” (<20% = +)
60 (TYLSIFDQL; listed as Homo sapiens) [compound 60] | “+” (<20% = +)

biological target: HLA-B*07 (Homo sapiens, UniProt P01889); experiment: MHC binding assay (UV-ligand exchange, β2m ELISA); settings: not given
Text: Candidate peptides for T cell based therapies according to the present invention were further tested for their MHC binding capacity (affinity). The individual peptide-MHC complexes were produced by UV-ligand exchange, where a UV-sensitive peptide is cleaved upon UV-irradiation, and exchanged with the peptide of interest as analyzed. Only peptide candidates that can effectively bind and stabilize the peptide-receptive MHC molecules prevent dissociation of the MHC complexes. To determine the yield of the exchange reaction, an ELISA was performed based on the detection of the light chain (β2m) of stabilized MHC complexes. The assay was performed as generally described in Rodenko et al. (Rodenko et al., 2006).
96 well MAXISorp plates (NUNC) were coated over night with 2 ug/ml streptavidin in PBS at room temperature, washed 4× and blocked for 1 h at 37° C. in 2% BSA containing blocking buffer. […] Peptide-MHC monomers of the UV-exchange reaction were diluted 100-fold in blocking buffer. Samples were incubated for 1 h at 37° C., washed four times, incubated with 2 ug/ml HRP conjugated anti-β2m for 1h at 37° C., washed again and detected with TMB solution that is stopped with […]. Absorption was measured at 450 nm. Candidate peptides that show a high exchange yield (preferably higher than 50%, most preferred higher than 75%) are generally preferred for a generation and production of antibodies or fragments thereof, and/or T cell receptors or fragments thereof, as they show sufficient avidity to the MHC molecules and prevent dissociation of the MHC complexes.

Substance | Peptide exchange (peptide exchange yield, MHC class I binding score)
281 (RPRAPVTPA; listed as Homo sapiens) [compound 281] | “++++” (>75% = ++++)
270 (APGPRFLVT; listed as Homo sapiens) [compound 270] | “++++” (>75% = ++++)
255 (MPLLENLYL; listed as Homo sapiens) [compound 255] | “++++” (>75% = ++++)
272 (MPLPWSLALPL; listed as Homo sapiens) [compound 272] | “++++” (>75% = ++++)
267 (HPELVNHIVF; listed as Homo sapiens) [compound 267] | “++” (>20% = ++)
261 (APSARVGVC; listed as Homo sapiens) [compound 261] | “+++” (>50 = +++)
239 (YVPSASLFML; listed as Homo sapiens) [compound 239] | “++++” (>75% = ++++)
282 (MPQIETRVIL; listed as Homo sapiens) [compound 282] | “+++” (>50 = +++)
279 (SPARASPAL; listed as Homo sapiens) [compound 279] | “+++” (>50 = +++)
256 (SPRVPSIEL; listed as Homo sapiens) [compound 256] | “++++” (>75% = ++++)
286 (VPTLRSEL; listed as Homo sapiens) [compound 286] | “++++” (>75% = ++++)
475 (RPHKPGLYL; listed as Homo sapiens) [compound 475] | “++++” (>75% = ++++)
260 (YPQHPGLNA; listed as Homo sapiens) [compound 260] | “+++” (>50 = +++)
278 (HPMIDINGIIVF; listed as Homo sapiens) [compound 278] | “++” (>20% = ++)
273 (MPLLWLRGF; listed as Homo sapiens) [compound 273] | “++” (>20% = ++)
271 (MPLPWSLALP; listed as Homo sapiens) [compound 271] | “+++” (>50 = +++)
288 (FPQKFIDLL; listed as Homo sapiens) [compound 288] | “++” (>20% = ++)
251 (VPRSSGQTV; listed as Homo sapiens) [compound 251] | “++++” (>75% = ++++)
265 (SPRQPPRLV; listed as Homo sapiens) [compound 265] | “++++” (>75% = ++++)
269 (APRAPRLML; listed as Homo sapiens) [compound 269] | “++++” (>75% = ++++)
268 (YPLFRGINL; listed as Homo sapiens) [compound 268] | “++++” (>75% = ++++)
470 (SPNSYFRVL; listed as Homo sapiens) [compound 470] | “++++” (>75% = ++++)
258 (LPRGPLASL; listed as Homo sapiens) [compound 258] | “++++” (>75% = ++++)

Now from value to substance:

Peptide exchange (peptide exchange yield, MHC class I binding score) | Substance
“++++” (>75% = ++++) | 257 (LPRIPFADV; listed as Homo sapiens) [compound 257]
“++++” (>75% = ++++) | 243 (RPIENRILIL; listed as Homo sapiens) [compound 243]
“++++” (>75% = ++++) | 246 (TPLPAVIVL; listed as Homo sapiens) [compound 246]
“++++” (>75% = ++++) | 236 (RVRGGEDGDRAL; listed as Homo sapiens) [compound 236]
“++++” (>75% = ++++) | 467 (KPFSSFTSM; listed as Homo sapiens) [compound 467]
“+++” (>50 = +++) | 276 (LPRAGGAFL; listed as Homo sapiens) [compound 276]
“++++” (>75% = ++++) | 235 (MPLKHYLLL; listed as Homo sapiens) [compound 235]
“+++” (>50 = +++) | 287 (APREEQQRSL; listed as Homo sapiens) [compound 287]
“++++” (>75% = ++++) | 259 (RPPAAGLRGISL; listed as Homo sapiens) [compound 259]
“+++” (>50 = +++) | 253 (RVIDAVRFTL; listed as Homo sapiens) [compound 253]
“+++” (>50 = +++) | 459 (RPMQQARAQL; listed as Homo sapiens) [compound 459]
“++++” (>75% = ++++) | 240 (SPREVTTVL; listed as Homo sapiens) [compound 240]
“++++” (>75% = ++++) | 234 (RAKNAGVTI; listed as Homo sapiens) [compound 234]
“++++” (>75% = ++++) | 464 (YPRPGTPAA; listed as Homo sapiens) [compound 464]
“++++” (>75% = ++++) | 468 (SPMYGQAGL; listed as Homo sapiens) [compound 468]
“++++” (>75% = ++++) | 254 (NPFPHLITL; listed as Homo sapiens) [compound 254]

Peptide exchange (peptide exchange yield, MHC class I binding score) | Substance
“+++” (>50 = +++) | 275 (APHPPLSVV; listed as Homo sapiens) [compound 275]
“++++” (>75% = ++++) | 471 (KPRPDVTNEL; listed as Homo sapiens) [compound 471]
“+++” (>50 = +++) | 280 (VPISEEGTPVL; listed as Homo sapiens) [compound 280]
“+++” (>50 = +++) | 229 (VPLPAGGGTV; listed as Homo sapiens) [compound 229]
“++++” (>75% = ++++) | 466 (APYKSVTSL; listed as Homo sapiens) [compound 466]
“++++” (>75% = ++++) | 295 (KPEGTRIAV; listed as Homo sapiens) [compound 295]
“++” (>20% = ++) | 284 (FPVTSIFHTF; listed as Homo sapiens) [compound 284]
“+++” (>50 = +++) | 230 (VPLPAGGGTVL; listed as Homo sapiens) [compound 230]
“+++” (>50 = +++) | 247 (RALLARLLL; listed as Homo sapiens) [compound 247]
“++++” (>75% = ++++) | 291 (SPQRLRGLL; listed as Homo sapiens) [compound 291]
“++++” (>75% = ++++) | 465 (VPRPIFSQL; listed as Homo sapiens) [compound 465]
“+” (>10% = +) | 262 (SAYPQRLEI; listed as Homo sapiens) [compound 262]
“++” (>20% = ++) | 469 (YPENGVVQM; listed as Homo sapiens) [compound 469]
“++++” (>75% = ++++) | 289 (VPENHSVAL; listed as Homo sapiens) [compound 289]
“++++” (>75% = ++++) | 227 (YPRGNHWAVGH; listed as Homo sapiens) [compound 227]

tested on: HLA-A*24; experiment: MHC binding assay (UV-ligand exchange, β2m ELISA); set-up: species or system human; settings: not given

Substance | Peptide exchange (peptide exchange yield, MHC class I binding score)
15 (KYALLLQDL; listed as Homo sapiens) [compound 15] | “++++” (>75% = ++++)
8 (PFLPPAACFF; listed as Homo sapiens) [compound 8] | “++++” (>75% = ++++)
62 (LYQEILAQL; listed as Homo sapiens) [compound 62] | “++++” (>75% = ++++)

Results, then the substance that gave them:

Peptide exchange (peptide exchange yield, MHC class I binding score) | Substance
“++++” (>75% = ++++) | 11 (YYSKSVGFMQW; listed as Homo sapiens) [compound 11]
“++++” (>75% = ++++) | 83 (TYCQNIKEF; listed as Homo sapiens) [compound 83]
“+++” (>50 = +++) | 60 (TYLSIFDQL; listed as Homo sapiens) [compound 60]

— patent US11292821B2, “Peptides and combination of peptides for use in immunotherapy against lung cancer, including NSCLC, SCLC and other cancers” (Immatics Biotechnologies GmbH, priority 2017, dated 2022)
